The text below walks through data of patent US9327008B2, “Cell-permeant peptide-based inhibitor of kinases” (Purdue Research Foundation, priority 2008, dated 2016).

Common to all, as to type: biochemical
One test addresses T1, FGFR1 (Homo sapiens, UniProt P11362).
T1 construct: purchased Millipore (assay service)
As to the kind of experiment: Millipore radiometric kinase activity assay, FGFR1 (h). The method, then: (§1) A commercial radiometric assay service (Millipore, Billerica, Mass.) was used to test the specificity and potency of peptides containing a coupled transduction domain and therapeutic domain, hereinafter “complete peptides”). In these assays, if the kinase is not inhibited by an inhibitor peptide, a positively charged substrate is phosphorylated with a radiolabeled phosphate group from an ATP.
In a final reaction volume of 25 μL, FGFR1 (h) (5-10 mU) is incubated with 8 mM MOPS pH 7.0, 0.2 mM EDTA, 250 μM […] [SEQ ID NO: 56], 10 mM MgAcetate and [γ-^33P-ATP] (specific activity approx. 500 cpm/pmol, concentration as required). The reaction is initiated by the addition of the MgATP mix. After incubation for 40 minutes at room temperature, the reaction is stopped by the addition of 5 μL, of a 3% phosphoric acid solution. 10 μL, of the reaction is then spotted onto a P30 filtermat and washed three times for 5 minutes in 75 mM phosphoric acid and once in methanol prior to drying and scintillation counting.
(§2) IC50 values for inhibitor peptides were determined using Millipore's IC50Profiler Express service. The IC50 value was estimated from a 10-point curve of one-half log dilutions. For peptides tested for specificity, the concentration of the peptides that inhibited approximately 95% of MK2 activity was chosen to profile against a battery of kinases related to MK2, cell viability, or human disease from MilliporeKinaseProfiler service. In both assays, compounds were supplied in dimethylsulfoxide (DMSO). Every kinase activity measurement was conducted in duplicate.
(§3) Therapeutic inhibitor peptides were assayed for activity against human kinases related to MK2, cell viability, or human disease. The assays were performed using concentrations of therapeutic inhibitor peptides that yielded 2% to 8% of normal MK2 activity. Error is reported as the standard deviation between 2 samples, and “c” is rat AMPK whereas all other kinases used are human kinases.

The target in the next test is T2, PKG1β (Homo sapiens, UniProt Q13976).
T2 construct: purchased Millipore (radiometric assay service)
T2 sequence (Q13976 1-686 isoform Q13976-2): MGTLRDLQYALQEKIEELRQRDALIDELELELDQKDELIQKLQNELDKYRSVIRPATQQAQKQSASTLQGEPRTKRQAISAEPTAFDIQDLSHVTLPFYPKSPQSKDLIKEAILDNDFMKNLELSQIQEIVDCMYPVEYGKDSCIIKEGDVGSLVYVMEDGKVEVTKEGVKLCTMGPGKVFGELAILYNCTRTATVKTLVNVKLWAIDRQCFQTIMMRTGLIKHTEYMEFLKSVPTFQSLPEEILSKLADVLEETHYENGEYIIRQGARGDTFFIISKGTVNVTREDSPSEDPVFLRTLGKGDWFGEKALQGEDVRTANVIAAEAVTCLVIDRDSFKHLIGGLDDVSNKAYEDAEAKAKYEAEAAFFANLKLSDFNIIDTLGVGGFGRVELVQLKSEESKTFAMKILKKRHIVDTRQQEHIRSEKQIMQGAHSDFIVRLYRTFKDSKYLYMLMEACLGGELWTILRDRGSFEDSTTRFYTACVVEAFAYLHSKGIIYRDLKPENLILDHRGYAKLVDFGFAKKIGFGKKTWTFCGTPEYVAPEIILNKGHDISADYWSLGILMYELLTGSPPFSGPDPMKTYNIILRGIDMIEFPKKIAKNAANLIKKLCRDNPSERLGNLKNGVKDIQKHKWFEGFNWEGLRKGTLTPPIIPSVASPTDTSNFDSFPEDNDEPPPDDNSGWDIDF
As to the kind of experiment: Millipore radiometric kinase activity assay, PKG1β (h). The method, then: as §1
(§4) In a final reaction volume of 25 μL, PKG1β (h) (5-10 mU) is incubated with 8 mM MOPS pH 7.0, 0.2 mM EDTA, 10 μM cGMP, 200 μM […] [SEQ ID NO: 62], 10 mM MgAcetate and [γ-^33P-ATP] (specific activity approx. 500 cpm/pmol, concentration as required). The reaction is initiated by the addition of the MgATP mix. After incubation for 40 minutes at room temperature, the reaction is stopped by the addition of 5 μL of a 3% phosphoric acid solution. 10 μL of the reaction is then spotted onto a P30 filtermat and washed three times for 5 minutes in 75 mM phosphoric acid and once in methanol prior to drying and scintillation counting.
as §2, §3

Another test deals with T3, KDR (Homo sapiens, UniProt P35968).
T3 construct: purchased Millipore (assay service)
T3 sequence (P35968 20-1356): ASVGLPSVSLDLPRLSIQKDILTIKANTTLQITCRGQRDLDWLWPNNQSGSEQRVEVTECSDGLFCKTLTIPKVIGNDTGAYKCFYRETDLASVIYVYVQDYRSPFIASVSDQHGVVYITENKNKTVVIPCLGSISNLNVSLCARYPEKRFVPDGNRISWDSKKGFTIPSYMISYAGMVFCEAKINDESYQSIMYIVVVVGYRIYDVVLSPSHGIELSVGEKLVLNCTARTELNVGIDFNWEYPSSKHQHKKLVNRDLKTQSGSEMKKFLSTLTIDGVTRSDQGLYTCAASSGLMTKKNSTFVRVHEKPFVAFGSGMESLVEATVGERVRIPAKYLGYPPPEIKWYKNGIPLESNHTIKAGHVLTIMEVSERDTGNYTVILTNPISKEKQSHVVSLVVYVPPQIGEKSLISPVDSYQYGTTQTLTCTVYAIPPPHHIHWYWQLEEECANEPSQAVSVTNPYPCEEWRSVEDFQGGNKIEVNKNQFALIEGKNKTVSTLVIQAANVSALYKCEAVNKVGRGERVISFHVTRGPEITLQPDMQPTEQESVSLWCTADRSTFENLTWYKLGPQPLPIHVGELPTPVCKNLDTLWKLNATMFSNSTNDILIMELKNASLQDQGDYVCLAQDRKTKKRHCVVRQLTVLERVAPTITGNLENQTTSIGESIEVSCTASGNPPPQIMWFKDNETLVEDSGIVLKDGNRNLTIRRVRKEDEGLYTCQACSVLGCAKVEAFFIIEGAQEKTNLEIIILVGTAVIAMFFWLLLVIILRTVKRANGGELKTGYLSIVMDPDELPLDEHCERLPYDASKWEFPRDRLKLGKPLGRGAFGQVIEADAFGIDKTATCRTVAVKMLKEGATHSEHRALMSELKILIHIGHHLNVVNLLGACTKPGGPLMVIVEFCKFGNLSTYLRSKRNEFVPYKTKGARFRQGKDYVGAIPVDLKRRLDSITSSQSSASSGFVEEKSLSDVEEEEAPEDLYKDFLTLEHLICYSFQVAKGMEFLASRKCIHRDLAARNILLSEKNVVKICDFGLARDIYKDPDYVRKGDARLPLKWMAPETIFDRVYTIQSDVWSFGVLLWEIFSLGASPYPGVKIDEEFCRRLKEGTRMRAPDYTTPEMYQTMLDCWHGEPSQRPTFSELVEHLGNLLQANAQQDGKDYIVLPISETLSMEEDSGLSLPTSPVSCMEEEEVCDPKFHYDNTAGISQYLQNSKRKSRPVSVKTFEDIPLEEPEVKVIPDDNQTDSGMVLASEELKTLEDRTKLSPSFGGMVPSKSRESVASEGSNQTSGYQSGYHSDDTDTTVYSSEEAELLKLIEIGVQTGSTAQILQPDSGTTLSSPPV
As to the kind of experiment: Millipore radiometric kinase activity assay, KDR (h). The method, then:
as §1
In a final reaction volume of 25 μL, KDR (h) (5-10 mU) is incubated with 8 mM MOPS pH 7.0, 0.2 mM EDTA, 0.33 mg/mL myelin basic protein, 10 mM MgAcetate and [γ-^33P-ATP] (specific activity approx. 500 cpm/pmol, concentration as required). The reaction is initiated by the addition of the MgATP mix. After incubation for 40 minutes at room temperature, the reaction is stopped by the addition of 5 μL of a 3% phosphoric acid solution. 10 μL of the reaction is then spotted onto a P30 filtermat and washed three times for 5 minutes in 75 mM phosphoric acid and once in methanol prior to drying and scintillation counting.
as §2, §3

A further test concerns the target T4, Src (residues 1-530) (Homo sapiens, UniProt P12931).
T4 construct: SRC (1-530) (h) (5-10 mU) is incubated; purchased Millipore (radiometric assay service)
As to the kind of experiment: Millipore radiometric kinase activity assay, SRC (1-530) (h). The method, then:
as §1
as §4, with “SRC (1-530)” for “PKG1β”, “[…]” for “10 μM cGMP, 200 μM”, “58],” for “62],”
as §2, §3

The next test addresses T5, Lck (Homo sapiens, UniProt P06239).
T5 construct: purchased Millipore (assay service)
As to the kind of experiment: Millipore radiometric kinase activity assay, Lck (h). The source says:
A commercial radiometric assay service (Millipore, Billerica, Mass.) was used to test the specificity and potency of peptides containing a coupled transduction domain and therapeutic domain, hereinafter “complete peptides”). In these assays, if the kinase is not inhibited by an inhibitor peptide, a positively charged substrate is phosphorylated with a radiolabeled phosphate group from an ATP. […] The reaction is initiated by the addition of the MgATP mix. […] IC50 values for inhibitor peptides were determined using Millipore's IC50Profiler Express service. The IC50 value was estimated from a 10-point curve of one-half log dilutions. […] In both assays, compounds were supplied in dimethylsulfoxide (DMSO). Every kinase activity measurement was conducted in duplicate. Therapeutic inhibitor peptides were assayed for activity against human kinases related to MK2, cell viability, or human disease. […] Error is reported as the standard deviation between 2 samples, and “c” is rat AMPK whereas all other kinases used are human kinases.

T5 sequence (P06239 whole entry): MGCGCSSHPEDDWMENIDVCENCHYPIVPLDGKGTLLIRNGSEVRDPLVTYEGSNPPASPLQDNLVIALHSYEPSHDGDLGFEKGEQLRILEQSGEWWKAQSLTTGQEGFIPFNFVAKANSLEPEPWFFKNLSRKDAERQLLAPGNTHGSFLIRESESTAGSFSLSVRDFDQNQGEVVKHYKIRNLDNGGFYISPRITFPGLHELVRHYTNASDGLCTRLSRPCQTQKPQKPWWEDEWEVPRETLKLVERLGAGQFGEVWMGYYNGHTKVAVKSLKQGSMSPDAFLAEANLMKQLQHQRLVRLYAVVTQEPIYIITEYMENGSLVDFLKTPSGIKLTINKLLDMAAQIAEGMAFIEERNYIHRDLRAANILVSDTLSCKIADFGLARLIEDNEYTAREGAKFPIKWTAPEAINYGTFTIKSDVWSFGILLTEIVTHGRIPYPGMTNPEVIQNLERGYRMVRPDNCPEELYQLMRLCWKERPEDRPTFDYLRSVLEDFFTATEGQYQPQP
T1 sequence (P11362 22-822): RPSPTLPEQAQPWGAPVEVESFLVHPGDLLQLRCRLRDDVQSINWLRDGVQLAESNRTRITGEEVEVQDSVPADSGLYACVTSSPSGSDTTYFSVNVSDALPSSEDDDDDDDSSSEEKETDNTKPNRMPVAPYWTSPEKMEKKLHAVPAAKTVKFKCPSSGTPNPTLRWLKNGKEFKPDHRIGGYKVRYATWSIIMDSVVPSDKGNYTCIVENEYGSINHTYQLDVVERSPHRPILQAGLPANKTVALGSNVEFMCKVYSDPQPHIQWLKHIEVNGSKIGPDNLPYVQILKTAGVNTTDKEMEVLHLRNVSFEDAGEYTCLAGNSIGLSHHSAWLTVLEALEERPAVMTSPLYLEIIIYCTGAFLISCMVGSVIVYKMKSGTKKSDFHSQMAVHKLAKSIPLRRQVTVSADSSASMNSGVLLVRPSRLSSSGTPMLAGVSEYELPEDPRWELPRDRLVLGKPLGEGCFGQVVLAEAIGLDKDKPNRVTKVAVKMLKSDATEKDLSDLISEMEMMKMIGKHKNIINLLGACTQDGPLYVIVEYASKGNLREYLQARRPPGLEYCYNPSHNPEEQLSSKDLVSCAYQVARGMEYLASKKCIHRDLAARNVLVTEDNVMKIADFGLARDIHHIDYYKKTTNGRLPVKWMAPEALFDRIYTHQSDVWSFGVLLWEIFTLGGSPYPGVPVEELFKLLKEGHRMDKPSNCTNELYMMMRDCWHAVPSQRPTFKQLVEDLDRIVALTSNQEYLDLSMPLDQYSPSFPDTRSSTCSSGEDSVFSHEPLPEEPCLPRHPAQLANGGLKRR

In the case of KAFAKLAARLYRKALARQLGVAA, the “FGFR1 Kinase Activity (%) (+SD %)” value with FGFR1 (peptide 100 μM) is recorded as 35 (1) %. In addition, in the test with PKG1β (peptide 100 μM), the “PKG1β Kinase Activity (%) (+SD %)” value is reported as 24 (5) %. Further, the “KDR Kinase Activity (%) (+SD %)” value with KDR (peptide 100 μM) was 56 (4) %. Besides, the “Src (residues 1-530) Kinase Activity (%) (+SD %)” value with Src (residues 1-530) (peptide 100 μM) is 3 (0) %. The “Lck Kinase Activity (%) (+SD %)” value in the test with Lck (peptide 100 μM) is given as 847 (29) %.

Turning to WLRRIKAWLRRIKALNRQLGVAA, the “FGFR1 Kinase Activity (%) (+SD %)” value with FGFR1 (peptide 30 μM) is given as 27 (1) %; with FGFR1 (peptide 100 μM) it was 22 (1) %. Moreover, the “PKG1β Kinase Activity (%) (+SD %)” value in the test with PKG1β (peptide 30 μM) was 15 (4) %; with PKG1β (peptide 100 μM) it was 15 (1) %. The results for the “KDR Kinase Activity (%) (+SD %)” value with KDR (peptide 30 μM) and in the test with KDR (peptide 100 μM) were 27 (0) % and 78 (6) %, respectively. In addition, the “Src (residues 1-530) Kinase Activity (%) (+SD %)” value with Src (residues 1-530) (peptide 30 μM) was 6 (1) %; with Src (residues 1-530) (peptide 100 μM) it was 5 (1) %. Besides, the entries for the “Lck Kinase Activity (%) (+SD %)” value in the test with Lck (peptide 30 μM) and in the test with Lck (peptide 100 μM) were 130 (1) % and 493 (7) %, respectively.
